Here are results for four molecules from article PMC9279153, “Structure of the Dicer-2–R2D2 heterodimer bound to a small RNA duplex”.

Data set [1] concerns the target T1, Dicer-2;R2D2 (Drosophila;Drosophila, UniProt A1ZAW0;Q9VLW8 1-1722;1-311, |). In words: photocrosslinking; crosslinks to R2D2, similar to 2-nt overhang; Crosslinking: 20 nM siRNA, 40 nM Dicer-2-R2D2, 30 min, >300 nm UV 60 s, buffer not given; structure: 30 mM Hepes-KOH pH 7.4, 100 mM potassium acetate, 2 mM magnesium acetate, 1 mM DTT, 0.02% glycerol, protein:siRNA 1:2 mixed at room temperature. As to conditions: protein: recombinant;recombinant; tags: 8xHis (structure prep);3xFlag; copies: 1;1; U-U mismatch at nt 1 of strand 1.

Data set [2] concerns the target T1, Dicer-2;R2D2. In words: photocrosslinking; g* crosslinks to R2D2; Crosslinking: 20 nM siRNA, 40 nM Dicer-2-R2D2, 30 min, >300 nm UV 60 s, buffer not given; structure: 30 mM Hepes-KOH pH 7.4, 100 mM potassium acetate, 2 mM magnesium acetate, 1 mM DTT, 0.02% glycerol, protein:siRNA 1:2 mixed at room temperature. As to conditions: protein: recombinant;recombinant; tags: 8xHis (structure prep);3xFlag; copies: 1;1; 3' overhang 2 nt on both strands.

Data set [3] addresses Dicer-2;R2D2 K98A (Drosophila;Drosophila, UniProt A1ZAW0;Q9VLW8 1-1722;1-311, |K98A). Nature of the data set: photocrosslinking; g* crosslinking not affected by K98A; Crosslinking: 20 nM siRNA, 40 nM Dicer-2-R2D2, 30 min, >300 nm UV 60 s, buffer not given; structure: 30 mM Hepes-KOH pH 7.4, 100 mM potassium acetate, 2 mM magnesium acetate, 1 mM DTT, 0.02% glycerol, protein:siRNA 1:2 mixed at room temperature. As to conditions: protein: recombinant;recombinant; tags: 8xHis (structure prep);3xFlag; copies: 1;1; 3' overhang 2 nt on both strands.

The target of data set [4] is Dicer-2;R2D2 CTD Δα2 (Drosophila;Drosophila, UniProt A1ZAW0;Q9VLW8 1-1722;1-201+=GGGS+215-311, |internal_change). Nature of the data set: photocrosslinking; g* crosslink to R2D2 abolished, g* crosslink to Dicer-2 increased (opposite orientation); Crosslinking: 20 nM siRNA, 40 nM Dicer-2-R2D2, 30 min, >300 nm UV 60 s, buffer not given; structure: 30 mM Hepes-KOH pH 7.4, 100 mM potassium acetate, 2 mM magnesium acetate, 1 mM DTT, 0.02% glycerol, protein:siRNA 1:2 mixed at room temperature. To be noted: protein: recombinant;recombinant; tags: 8xHis (structure prep);3xFlag; copies: 1;1; 3' overhang 2 nt on both strands.
Dicer-2;R2D2 CTD Δα2, sequence (A1ZAW0 whole entry, stated change not applied, chain 1 of 2): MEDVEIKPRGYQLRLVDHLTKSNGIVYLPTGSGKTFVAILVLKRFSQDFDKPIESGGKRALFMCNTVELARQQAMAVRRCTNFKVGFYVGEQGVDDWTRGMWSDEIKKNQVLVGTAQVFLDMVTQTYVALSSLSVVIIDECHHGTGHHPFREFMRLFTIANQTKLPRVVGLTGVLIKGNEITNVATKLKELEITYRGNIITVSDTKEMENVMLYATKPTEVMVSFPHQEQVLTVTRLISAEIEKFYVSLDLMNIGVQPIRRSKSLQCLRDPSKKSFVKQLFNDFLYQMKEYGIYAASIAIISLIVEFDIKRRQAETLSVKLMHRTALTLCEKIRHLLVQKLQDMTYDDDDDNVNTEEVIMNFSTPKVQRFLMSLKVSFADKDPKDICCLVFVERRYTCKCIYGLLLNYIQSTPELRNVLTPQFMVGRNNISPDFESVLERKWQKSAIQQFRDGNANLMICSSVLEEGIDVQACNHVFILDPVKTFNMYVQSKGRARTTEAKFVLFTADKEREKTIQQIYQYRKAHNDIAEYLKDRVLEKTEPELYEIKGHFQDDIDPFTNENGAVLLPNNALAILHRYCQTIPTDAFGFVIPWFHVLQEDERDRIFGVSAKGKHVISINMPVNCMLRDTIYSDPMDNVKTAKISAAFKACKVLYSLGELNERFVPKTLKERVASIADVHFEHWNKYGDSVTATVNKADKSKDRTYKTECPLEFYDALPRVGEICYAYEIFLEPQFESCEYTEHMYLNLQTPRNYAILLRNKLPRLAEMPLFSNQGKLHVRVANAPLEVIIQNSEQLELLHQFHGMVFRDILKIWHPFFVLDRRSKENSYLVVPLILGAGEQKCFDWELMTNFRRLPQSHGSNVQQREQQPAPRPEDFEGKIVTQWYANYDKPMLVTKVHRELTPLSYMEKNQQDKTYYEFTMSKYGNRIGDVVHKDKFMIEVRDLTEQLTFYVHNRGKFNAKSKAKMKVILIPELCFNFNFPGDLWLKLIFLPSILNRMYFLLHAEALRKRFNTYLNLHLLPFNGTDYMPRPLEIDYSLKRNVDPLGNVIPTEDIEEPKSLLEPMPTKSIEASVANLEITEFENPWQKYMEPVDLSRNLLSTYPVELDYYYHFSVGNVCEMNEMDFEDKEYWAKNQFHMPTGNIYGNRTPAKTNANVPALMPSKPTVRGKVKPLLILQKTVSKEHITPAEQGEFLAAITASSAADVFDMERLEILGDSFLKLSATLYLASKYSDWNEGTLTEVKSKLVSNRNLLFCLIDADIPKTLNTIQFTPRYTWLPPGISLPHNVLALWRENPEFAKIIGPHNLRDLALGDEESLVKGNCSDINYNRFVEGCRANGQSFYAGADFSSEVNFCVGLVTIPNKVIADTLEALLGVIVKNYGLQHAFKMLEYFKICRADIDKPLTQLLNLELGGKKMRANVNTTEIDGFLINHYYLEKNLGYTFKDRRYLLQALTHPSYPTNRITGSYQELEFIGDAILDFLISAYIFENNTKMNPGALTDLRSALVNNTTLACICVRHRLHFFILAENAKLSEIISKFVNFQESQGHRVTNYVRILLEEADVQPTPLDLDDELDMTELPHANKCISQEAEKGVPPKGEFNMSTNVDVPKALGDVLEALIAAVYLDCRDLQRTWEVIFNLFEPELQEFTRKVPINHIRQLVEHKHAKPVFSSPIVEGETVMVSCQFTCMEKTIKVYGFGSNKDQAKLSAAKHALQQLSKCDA
Dicer-2;R2D2 CTD Δα2, sequence (chain, as listed by the source | | mutant, chain 2 of 2): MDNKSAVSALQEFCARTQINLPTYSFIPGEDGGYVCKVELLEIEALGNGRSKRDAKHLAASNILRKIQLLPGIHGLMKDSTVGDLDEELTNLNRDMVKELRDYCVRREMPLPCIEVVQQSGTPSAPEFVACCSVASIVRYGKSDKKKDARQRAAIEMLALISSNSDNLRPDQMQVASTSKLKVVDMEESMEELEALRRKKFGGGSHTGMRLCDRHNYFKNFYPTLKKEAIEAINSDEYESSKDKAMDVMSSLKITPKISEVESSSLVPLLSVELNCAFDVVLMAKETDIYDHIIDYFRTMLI

In data set [5] the target is T1, Dicer-2;R2D2. Nature of the data set: photocrosslinking; crosslinks to R2D2; Crosslinking: 20 nM siRNA, 40 nM Dicer-2-R2D2, 30 min, >300 nm UV 60 s, buffer not given; structure: 30 mM Hepes-KOH pH 7.4, 100 mM potassium acetate, 2 mM magnesium acetate, 1 mM DTT, 0.02% glycerol, protein:siRNA 1:2 mixed at room temperature. To be noted: protein: recombinant;recombinant; tags: 8xHis (structure prep);3xFlag; copies: 1;1; 3' overhang 2 nt on strand 2; U-U mismatch at nt 1 of strand 1.

The target in data set [6] is T1, Dicer-2;R2D2. Nature of the data set: cryo-EM; two duplexes: one on R2D2 (well resolved), one on Dicer-2 helicase (poorly resolved); Crosslinking: 20 nM siRNA, 40 nM Dicer-2-R2D2, 30 min, >300 nm UV 60 s, buffer not given; structure: 30 mM Hepes-KOH pH 7.4, 100 mM potassium acetate, 2 mM magnesium acetate, 1 mM DTT, 0.02% glycerol, protein:siRNA 1:2 mixed at room temperature. To be noted: protein: recombinant;recombinant; tags: 8xHis (structure prep);3xFlag; copies: 1;1; 19-nt duplex region with U-U mismatch at g1:p19; 3' overhang 2 nt on both strands.

T1 sequence (A1ZAW0 whole entry, chain 1 of 2): as the sequence (A1ZAW0 whole entry, stated change not applied, chain 1 of 2) above
T1 sequence (chain, as listed by the source |, chain 2 of 2): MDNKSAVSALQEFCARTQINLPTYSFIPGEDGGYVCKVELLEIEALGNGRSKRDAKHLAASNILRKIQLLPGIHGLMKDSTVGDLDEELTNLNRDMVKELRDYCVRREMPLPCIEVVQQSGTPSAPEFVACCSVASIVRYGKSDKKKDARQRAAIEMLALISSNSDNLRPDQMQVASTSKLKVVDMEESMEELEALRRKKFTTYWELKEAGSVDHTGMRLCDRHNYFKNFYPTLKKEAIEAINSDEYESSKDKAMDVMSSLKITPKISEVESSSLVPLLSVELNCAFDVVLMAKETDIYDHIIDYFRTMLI
Dicer-2;R2D2 K98A, sequence (A1ZAW0 whole entry, chain 1 of 2): as the sequence (A1ZAW0 whole entry, stated change not applied, chain 1 of 2) above
Dicer-2;R2D2 K98A, sequence (chain, as listed by the source |K98A | K98A K98A, chain 2 of 2): as the sequence (chain, as listed by the source |, chain 2 of 2) above, with K98A counted along it

B1: g* siRNA, 1-nt overhang (siRNA-4/siRNA-2) (dsRNA)
RNA 1: UGAGGUAGUAGGUUGUAUAU
RNA 2: UAUACAACCUACUACCUCUUU
modifications: 5-iodouracil at position 20 of strand 1 (written as U)
Consider B1, for which the binding result in data set [1] is listed as “binds”.

B2: g* siRNA, 2-nt overhang (siRNA-1/siRNA-2) (dsRNA)
RNA 1: UGAGGUAGUAGGUUGUAUAUU
RNA 2: UAUACAACCUACUACCUCUUU
modifications: 5-iodouracil at position 20 of strand 1 (written as U)
B2: the binding result in data set [2], in data set [3] and in data set [4] was “binds” in each case.

B3: g* siRNA, blunt stable end (siRNA-4/siRNA-5) (dsRNA)
RNA 1: UGAGGUAGUAGGUUGUAUAU
RNA 2: AUAUACAACCUACUACCUCUUU
modifications: 5-iodouracil at position 20 of strand 1 (written as U)
As for B3, the binding result in data set [5] was “binds”.

B4: let-7 siRNA duplex (guide/passenger) (dsRNA)
RNA 1: UGAGGUAGUAGGUUGUAUAGU
RNA 2: UAUACAACCUACUACCUCUCU
modifications: 5'-phosphate (passenger p1)
B4: the binding result in data set [6] was “binds”.
